B1: sp¦Q9HAV0¦GBB4_HUMAN (protein, UniProt Q9HAV0 2-340, looked up)
Guanine nucleotide-binding …: SELEQLRQEAEQLRNQIQDARKACNDATLVQITSNMDSVGRIQMRTRRTLRGHLAKIYAMHWGYDSRLLVSASQDGKLIIWDSYTTNKMHAIPLRSSWVMTCAYAPSGNYVACGGLDNICSIYNLKTREGNVRVSRELPGHTGYLSCCRFLDDSQIVTSSGDTTCALWDIETAQQTTTFTGHSGDVMSLSLSPDMRTFVSGACDASSKLWDIRDGMCRQSFTGHVSDINAVSFFPNGYAFATGSDDATCRLFDLRADQELLLYSHDNIICGITSVAFSKSGRLLLAGYDDFNCNVWDTLKGDRAGVLAGHDNRVSCLGVTDDGMAVATGSWDSFLRIWN
B2: sp¦P30044¦PRDX5_HUMAN (protein, UniProt P30044 53-214, looked up)
Peroxiredoxin-5, mitochondrial: MAPIKVGDAIPAVEVFEGEPGNKVNLAELFKGKKGVLFGVPGAFTPGCSKTHLPGFVEQAEALKAKGVQVVACLSVNDAFVTGEWGRAHKAEGKVRLLADPTGAFGKETDLLLDDSLVSIFGNRRLKRFSMVVQDGIVKALNVEPDGTGLTCSLAPNIISQL
B3: sp¦P00505¦AATM_HUMAN (protein, UniProt P00505 30-430, looked up)
Aspartate aminotransferase, …: SSWWTHVEMGPPDPILGVTEAFKRDTNSKKMNLGVGAYRDDNGKPYVLPSVRKAEAQIAAKNLDKEYLPIGGLAEFCKASAELALGENSEVLKSGRFVTVQTISGTGALRIGASFLQRFFKFSRDVFLPKPTWGNHTPIFRDAGMQLQGYRYYDPKTCGFDFTGAVEDISKIPEQSVLLLHACAHNPTGVDPRPEQWKEIATVVKKRNLFAFFDMAYQGFASGDGDKDAWAVRHFIEQGINVCLCQSYAKNMGLYGERVGAFTMVCKDADEAKRVESQLKILIRPMYSNPPLNGARIAAAILNTPDLRKQWLQEVKVMADRIIGMRTQLVSNLKKEGSTHNWQHITDQIGMFCFTGLKPEQVERLIKEFSIYMTKDGRISVAGVTSSNVGYLAHAIHQVTK
B4: sp¦P13804¦ETFA_HUMAN (protein, UniProt P13804 20-333, looked up)
Electron transfer …: QSTLVIAEHANDSLAPITLNTITAATRLGGEVSCLVAGTKCDKVAQDLCKVAGIAKVLVAQHDVYKGLLPEELTPLILATQKQFNYTHICAGASAFGKNLLPRVAAKLEVAPISDIIAIKSPDTFVRTIYAGNALCTVKCDEKVKVFSVRGTSFDAAATSGGSASSEKASSTSPVEISEWLDQKLTKSDRPELTGAKVVVSGGRGLKSGENFKLLYDLADQLHAAVGASRAAVDAGFVPNDMQVGQTGKIVAPELYIAVGISGAIQHLAGMKDSKTIVAINKDPEAPIFQVADYGIVADLFKVVPEMTEILKKK
B5: sp¦Q9NVP1¦DDX18_HUMAN (protein, UniProt Q9NVP1 1-670, looked up)
ATP-dependent RNA helicase …: MSHLPMKLLRKKIEKRNLKLRQRNLKFQGASNLTLSETQNGDVSEETMGSRKVKKSKQKPMNVGLSETQNGGMSQEAVGNIKVTKSPQKSTVLTNGEAAMQSSNSESKKKKKKKRKMVNDAEPDTKKAKTENKGKSEEESAETTKETENNVEKPDNDEDESEVPSLPLGLTGAFEDTSFASLCNLVNENTLKAIKEMGFTNMTEIQHKSIRPLLEGRDLLAAAKTGSGKTLAFLIPAVELIVKLRFMPRNGTGVLILSPTRELAMQTFGVLKELMTHHVHTYGLIMGGSNRSAEAQKLGNGINIIVATPGRLLDHMQNTPGFMYKNLQCLVIDEADRILDVGFEEELKQIIKLLPTRRQTMLFSATQTRKVEDLARISLKKEPLYVGVDDDKANATVDGLEQGYVVCPSEKRFLLLFTFLKKNRKKKLMVFFSSCMSVKYHYELLNYIDLPVLAIHGKQKQNKRTTTFFQFCNADSGTLLCTDVAARGLDIPEVDWIVQYDPPDDPKEYIHRVGRTARGLNGRGHALLILRPEELGFLRYLKQSKVPLSEFDFSWSKISDIQSQLEKLIEKNYFLHKSAQEAYKSYIRAYDSHSLKQIFNVNNLNLPQVALSFGFKVPPFVDLNVNSNEGKQKKRGGGGGFGYQKTKKVEKSKIFKHISKKSSDSRQFSH

These molecules were tested on human HL60 cells (assay: SWATH-MS proteomics, differential protein representation, akirin2 KO vs WT HL60 cells). Conditions: SWATH-MS, akirin2 KO vs WT HL60 cells; sheet "Under-represented in KO".
Type: cell-based
How it was run: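 WT and akirin2 KO HL60 lysates (150 µg, n=3 biological replicates) were FASP trypsin-digested and desalted. A spectral library was built by IDA from 3 µg digests, then 5 µg per sample went to variable-window SWATH DIA over a 120-min 5–30% acetonitrile gradient. Identifications were accepted at 1% global FDR, with total-area-sum normalization.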
With B1 the “Fold Change” value was 0.7672 and the “Log (Fold Change)” value was -0.1151. For B2, the “Fold Change” value was 0.764 and the “Log (Fold Change)” value was -0.1169. With B3 the “Fold Change” value was 0.7669 and the “Log (Fold Change)” value was -0.1152. For B4, the “Fold Change” value was 0.7634 and the “Log (Fold Change)” value was -0.1173. For B5, the “Fold Change” value was 0.7616 and the “Log (Fold Change)” value was -0.1182.
